Results reported in patent publication US20240150494A1.
Numbering of substitutions follows the chain as printed.

Experiments:
[1] = molecular target: G2-Rituximab (galactosylated afucosylated glycoform of rituximab) (human); assay: SPR (Biacore T200), 1:1 Langmuir fit
[2] = molecular target: G2F-Rituximab (galactosylated fucosylated glycoform of rituximab) (human); assay: SPR (Biacore T200), 1:1 Langmuir fit
[3] = molecular target: G2-Rituximab (galactosylated afucosylated glycoform of rituximab) (human); assay: SPR, 1:1 Langmuir global kinetic fit, 1024 to 32 nM in 2-fold steps
[4] = molecular target: G2-Rituximab (galactosylated afucosylated glycoform of rituximab) (human); assay: flow cytometry of yeast displaying C11, stained with IgG1 G2 (Alexa647) and IgG1 G2F (FITC)
[5] = molecular target: G2-Rituximab (galactosylated afucosylated glycoform of rituximab) (human); assay: SPR; drawn table, KD (G2)

B1: D3 (VHH, not shown: small tags and cut ends)
VHH: QVQLQESGGGLVQAGGSLRLSCAASGNISADRYMGWYRQAPGKEREFVAAIGYGGTTYYADSVKGRFTISRDNAKNTVYLQMNSLKPEDTAVYYCAVVDGAHSRHRYWGQGTQVTVSS
B1 showed a Kd [1] of 0.323 µM, a Kd [2] of 1.9 µM and a Kd [3] of 0.353 µM.

B2: C11 (VHH, not shown: small tags and cut ends)
VHH: QVQLQESGGGLVQAGGSLRLSCAASGYISRYHTMGWYRQAPGKEREFVAGITWGGSTYYADSVKGRFTISRDNAKNTVYLQMNSLKPEDTAVYYCAVDGGTYADPYHYYWGQGTQVTVSS
B2 showed a Kd [1] of 22.8 µM and a number printed in the lower right quadrant (IgG1 G2 Alexa647 positive, IgG1 G2F FITC negative) [4] of 4.

B3: E2 (VHH, not shown: small tags and cut ends)
VHH: B2 VHH with G26S, E46S, S56L, I69V, Y102R
In the case of B3, the Kd [5] is reported as 4.74 µM.

B4: E4 (VHH, not shown: small tags and cut ends)
VHH: B2 VHH with G26P, G50A
B4 gave a Kd [5] of 2.48 µM.
